# Reference: the supplement of paper PMC12764529
# ± gives the half width of the 95% confidence interval.
# Tests used:
# [1] = folding stability dG unfold from trypsin proteolysis; higher = more stable
# Procedure, shortened: (§1)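 Digests were run with trypsin and chymotrypsin at 11 concentrations in threefold dilutions, plus a no-protease condition, on designed mini-proteins in a PA-tagged cDNA display construct. The mini-proteins were under 80 residues, had no cysteine, and were kept only when AlphaFold2 dimer inter-PAE was above 15. After sequencing, Bayesian fitting of the counts gave K50, from which unfolding free energy was derived against a sequence-predicted unfolded-state K50 and a shared folded-state K50, per protease or combined.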
# [2] = folding stability dG unfold (combined trypsin and chymotrypsin); higher = more stable
# Procedure, shortened: as §1
# [3] = folding stability dG unfold from chymotrypsin proteolysis; higher = more stable
# Procedure, shortened: as §1
sequence,measurement,setting,value
SAGGEKTTLTLTLTLTLPPVTTVTYDPETGELRVETRTTTLTLTITVTADSPEEAERALRELLKKLGLSAGG [r13_35_TrROS_Hall],folding stability dG unfold,[1],4.4 ± 0.17 kcal/mol
same,folding stability dG unfold,[2],> 6 kcal/mol
same,folding stability dG unfold,[3],6.41 ± 0.27 kcal/mol
SAGGEKTYMVRIDIEYRTPGKPREIDLMVPIKSPEQAREQLDKIADFLAKEHPDNWRIKVEIYPMEDSAGGS [r16_475_TrROS],folding stability dG unfold,[1],1.28 ± 0.18 kcal/mol
same,folding stability dG unfold,[2],2.16 ± 0.29 kcal/mol
same,folding stability dG unfold,[3],2.49 ± 0.068 kcal/mol
SAGGELIEKAIEEALENGEEVEIEVVLRDENGELYRIRIRVRRERLPDGEVKTEIEIEIERFPLPEESAGGS [r16_323_TrROS_Hall],folding stability dG unfold,[1],4.28 ± 0.2 kcal/mol
same,folding stability dG unfold,[2],4.6 ± 0.12 kcal/mol
same,folding stability dG unfold,[3],4.66 ± 0.11 kcal/mol
SAGGELVLLSESESVFTSPDGSRTVVRTLLTERPGDLLVEITTTTTIEPESGAVTTTTTTRVLPRRESAGGS [r8_264_JUSTAS],folding stability dG unfold,[1],2.33 ± 0.043 kcal/mol
same,folding stability dG unfold,[2],2.8 ± 0.038 kcal/mol
same,folding stability dG unfold,[3],3.021 ± 0.013 kcal/mol
SAGGEMTAEERARRLAERLAEELERRTGRKVEVVSVEVEYDPETDEVTVRIEIRLEDGSTLTIELRLSAGGS [r8_372_TrROS_Hall],folding stability dG unfold,[1],4.86 ± 0.26 kcal/mol
same,folding stability dG unfold,[2],4.33 ± 0.27 kcal/mol
same,folding stability dG unfold,[3],3.41 ± 0.11 kcal/mol
SAGGESTPEIEPVATLELPTPDGRPITVEVYRLKDGTVRVVVRNPNPPETITLTIPAKEGETIPIFLSAGGS [r16_566_TrMRF],folding stability dG unfold,[1],1.9 ± 0.04 kcal/mol
same,folding stability dG unfold,[2],2.11 ± 0.067 kcal/mol
same,folding stability dG unfold,[3],2.2 ± 0.045 kcal/mol
SAGGETKTITIKVDGKLVTITVKKNKNGEELVTVKVYENGKLVEEVTMSKDELEELAKKLGLSVEELKSAGG [r13_108_TrROS_Hall],folding stability dG unfold,[1],3.27 ± 0.091 kcal/mol
same,folding stability dG unfold,[2],3.62 ± 0.1 kcal/mol
same,folding stability dG unfold,[3],3.81 ± 0.051 kcal/mol
SAGGETVEIEVEMSPEEVREAIKKAAEALDAEVVEVKYDKETKKVTITVKKGATEEELRKALEEALKSAGGS [r8_338_TrROS_Hall],folding stability dG unfold,[1],2.47 ± 0.12 kcal/mol
same,folding stability dG unfold,[2],2.19 ± 0.095 kcal/mol
same,folding stability dG unfold,[3],1.78 ± 0.095 kcal/mol
SAGGETVTITIKVKGKEITVTFNKDTGKVTITDKDTGKTVTITLPAGEEPTLEELLEALKKLGFEIEPSAGG [r13_687_TrROS_Hall],folding stability dG unfold,[1],4.11 ± 0.18 kcal/mol
same,folding stability dG unfold,[2],4.32 ± 0.099 kcal/mol
same,folding stability dG unfold,[3],4.18 ± 0.095 kcal/mol
SAGGEVIELKIKFKTPEQREKLKEIAKKLNAEVVEEKDGEVIIRFKTPEQAERALKEAEKLGAEVELSAGGS [r16_88_TrROS_Hall],folding stability dG unfold,[1],4.29 ± 0.26 kcal/mol
same,folding stability dG unfold,[2],4.48 ± 0.17 kcal/mol
same,folding stability dG unfold,[3],4.47 ± 0.097 kcal/mol
SAGGEVKIEVVEKDGELYIVVTVRAPSVEELKKALEELGLEVEVVKIEEVKGEDGETYVVVVVKIKPSAGGS [r16_699_TrROS_Hall],folding stability dG unfold,[1],2.41 ± 0.086 kcal/mol
same,folding stability dG unfold,[2],3.24 ± 0.07 kcal/mol
same,folding stability dG unfold,[3],3.68 ± 0.065 kcal/mol
SAGGEVKPGEEVEVEVLVLVRGEDGELYLVRVKMRFRVKEDGTVEMEVEVEVVRVPLSEEELKALLEASAGG [r13_544_TrROS_Hall],folding stability dG unfold,[1],4.43 ± 0.14 kcal/mol
same,folding stability dG unfold,[2],> 6 kcal/mol
same,folding stability dG unfold,[3],5.99 ± 0.26 kcal/mol
SAGGEVKTLEVTLEVNGKKVRVRVELTKDGTLKVTVTFEDGTKVELEIKLPKVKVKEVKFYSLEELKSAGGS [r16_48_TrROS_Hall],folding stability dG unfold,[1],2.22 ± 0.071 kcal/mol
same,folding stability dG unfold,[2],2.06 ± 0.1 kcal/mol
same,folding stability dG unfold,[3],1.78 ± 0.05 kcal/mol
SAGGEVKVEIEVELNEDGTLRVRARVEVRVDGELVTVEVEIEVRLEPAPPPAPPPVLVVDPETGEILSAGGS [r8_269_TrROS_Hall],folding stability dG unfold,[1],3.29 ± 0.2 kcal/mol
same,folding stability dG unfold,[2],2.7 ± 0.21 kcal/mol
same,folding stability dG unfold,[3],1.94 ± 0.11 kcal/mol
SAGGEVKVEIKYDKKKNKIEIKVIVRDKETGEWKELSAEEIAKLLKKKLKLPNVKEIKVEVYEPGEKPSAGG [r13_327_TrROS_Hall],folding stability dG unfold,[1],1.31 ± 0.11 kcal/mol
same,folding stability dG unfold,[2],1.97 ± 0.18 kcal/mol
same,folding stability dG unfold,[3],1.98 ± 0.12 kcal/mol
SAGGEVLVIELSLEELKNLKPNQTVKIKLPDGSELEVRVEEVDGRLYLFVRNKENPEEVELIEEITIESAGG [r13_745_TrROS_Hall],folding stability dG unfold,[1],2.79 ± 0.062 kcal/mol
same,folding stability dG unfold,[2],3.3 ± 0.065 kcal/mol
same,folding stability dG unfold,[3],3.48 ± 0.049 kcal/mol
SAGGEYTVVSVLEERKDPATGKTVTLELLKDPNSNVLYRRVTTTDPANPDVVTTTLYDAAGNKVSTVSSAGG [r13_658_JUSTAS],folding stability dG unfold,[1],2.17 ± 0.046 kcal/mol
same,folding stability dG unfold,[2],2.48 ± 0.095 kcal/mol
same,folding stability dG unfold,[3],2.62 ± 0.055 kcal/mol
SAGGFIVVPIKAKSLEEALEKAREIAAALGIPGTLEDPRVDLDDFLKNYKPDTEVRVYVRHPDGVIDELSAG [r5_503_TrMRF],folding stability dG unfold,[1],1.23 ± 0.033 kcal/mol
same,folding stability dG unfold,[2],0.878 ± 0.11 kcal/mol
same,folding stability dG unfold,[3],0.223 ± 0.21 kcal/mol
SAGGFKIKNIDVERNPDNGWRTITVEFPGNGWKFQIQVPPDGGVKYEWYNNGEPQTYTIPADDLKDLSAGGS [r8_238_TrROS],folding stability dG unfold,[1],1 ± 0.06 kcal/mol
same,folding stability dG unfold,[2],1.2 ± 0.08 kcal/mol
same,folding stability dG unfold,[3],1.34 ± 0.082 kcal/mol
SAGGFWLKNPNGHYIQVNVEVEWEPRRDPDNGKPTWEPKIEINVEVYDPNGEKRPIPEDQAKDLLKKLSAGG [r13_809_TrROS],folding stability dG unfold,[1],0.604 ± 0.073 kcal/mol
same,folding stability dG unfold,[2],1.31 ± 0.11 kcal/mol
same,folding stability dG unfold,[3],1.64 ± 0.082 kcal/mol
SAGGGAAEEAARALIDEAKAALGLSEISEVVLTREGDGVTMTVRFPGKGLVITIDLAAGVVTAVEDVSAGGS [r16_171_JUSTAS],folding stability dG unfold,[1],2.18 ± 0.034 kcal/mol
same,folding stability dG unfold,[2],2.11 ± 0.035 kcal/mol
same,folding stability dG unfold,[3],2.018 ± 0.0088 kcal/mol
